{"source": "patent US20230235004A1", "about": "(published 2023)", "binders": {"B1": {"name": "MAdCAM Antibody Table 2 clone 38 (antibody, V domains shown)", "VH": "QVQLVQSGAEVKKPGASVKVSCKASGYTFTDYFLHWVRQAPGQGLEWMGWMNPTSGNTGYAQKFQGRVTMTRDTSTSTVYMELSSLRSEDTAVYYCAREGEGSGFDYWGQGTLVTVSS", "VL": "DIQMTQSPSSLSASVGDRVTITCRASQGINSWLAWYQQKPGKAPKLLIYDASNLETGVPSRFSGSGSGTDFTLTISSLQPEDFATYYCQQSYSTPLTFGGGTKVEIK", "notes": "IgG format"}, "B2": {"name": "MAdCAM Antibody Table 2 clone 53 (antibody, V domains shown)", "VH": "QVQLVQSGAEVKKPGASVKVSCKASGYTFTSYYMHWVRQAPGQGLEWMGWMNPNSGNTGYAQKFQGRVTMTRDTSTSTVYMELSSLRSEDTAVYYCAREGLGYCTNGVCWNYYGMDVWGQGTLVTVSS", "VL": "B1 VL with N30S, D50G, N53S, E55Q, T56S, L96Y, G100Q", "notes": "IgG format"}, "B3": {"name": "MAdCAM Antibody Table 2 clone 56 (antibody, V domains shown)", "VH": "EVQLVESGGGLVKPGGSLRLSCAASGFTFSSYWMSWVRQAPGKGLEWVSAIGTGGGTYYAAPVKGRFTISRDDSKNTLYLQMNSLKTEDTAVYYCAREWLVPYYGMDVWGQGTTVTVSS", "VL": "B1 VL with G28S, N30S, S31R, D50G, E55Q, T56S, L96W, G100Q", "notes": "IgG format"}, "B4": {"name": "MAdCAM Antibody Table 2 clone 42 (antibody, V domains shown)", "VH": "QVQLVQSGAEVKKPGASVKVSCKASGYTLTDYYMHWVRQAPGQGLEWMGIINPSGGSTSYAQKFQGRVTMTRDTSTSTVYMELSSLRSEDTAVYYCAREEYSSSSGYFDYWGQGTLVTVSS", "VL": "B1 VL with N30S, D50A, N53S, E55Q, T56S, G100Q", "notes": "IgG format"}, "B5": {"name": "MAdCAM Antibody Table 2 clone 64 (antibody, V domains shown)", "VH": "EVQLLESGGGLVQPGGSLRLSCAASGFTFSNSDMNWVRQAPGKGLEWVAHIWNDGSQKYYADSVKGRFTISRDNSKNTLYLQMNSLRAEDTAVYYCARDRTDPGYSSAMDVWGQGTTVTVSS", "VL": "B1 VL with G28D, N30R, S31N, W32Y, A34G, N53S, S91A, Y92T, T94L", "notes": "IgG format"}, "B6": {"name": "MAdCAM Antibody Table 2 clone 61 (antibody, V domains shown)", "VH": "QVQLVQSGAEVKKPGASVKVSCKASGDTFTGYYIHWVRQAPGQGLEWMGWINPNSGGTNYAQKFQGRVTMTRDTSTSTVYMELSSLRSEDTAVYYCARSGLWLGSYYGMDVWGQGTLVTVSS", "VL": "B1 VL with G28T, N30S, S31I, N53T, E55Q, T56S, S91Y, Y92S, T94Y, G100Q", "notes": "IgG format"}, "B7": {"name": "MAdCAM Antibody Table 2 clone 39 (antibody, V domains shown)", "VH": "QVQLVQSGAEVKKPGASVKVSCKASGYTFTSYYMHWVRQAPGQGLEWMAWMNPNSGNTGYAQKFQGRVTMTRDTSTSTVYMELSSLRSEDTAVYYCARDYDFWSGSLGYWGQGTLVTVSS", "VL": "B1 VL with N30S, S31N, W32Y, D50A, N53S, E55Q, T56S, L96W, G100Q", "notes": "IgG format"}, "B8": {"name": "MAdCAM Antibody Table 2 clone 43 (antibody, V domains shown)", "VH": "QVQLVQSGAEVKKPGASVKVSCKASGYTFTSYGISWVRQAPGQGLEWMGWMHPKSGDTGLTQKFQGRVTMTRDTSTSTVYMELSSLRSEDTAVYYCARDTPYYYYGMDVWGQGTTVTVSS", "VL": "B1 VL with G28S, N30S, D50A, N53S, E55Q, T56S, T94V, L96I, G100Q", "notes": "IgG format"}, "B9": {"name": "MAdCAM Antibody Table 2 clone 67 (antibody, V domains shown)", "VH": "QVQLVQSGAEVKKPGASVKVSCKASGYTFTGYYMHWVRQAPGQGLEWMGMIYPRDGSTSYAQKFQGRVTMTRDTSTSTVYMELSSLRSEDTAVYYCAMTGWGYGMDVWGKGTTVTVSS", "VL": "B1 VL with S31N, W32Y, N53T, E55Q, T56S, T94A, L96P, G100Q, V104L", "notes": "IgG format"}, "B10": {"name": "MAdCAM Antibody Table 2 clone 41 (antibody, V domains shown)", "VH": "QVQLVQSGAEVKKPGASVKVSCKASGYTFTSYYMHWVRQAPGQGLEWMGIINPSGGSTSYAQKFQGRVTMTRDTSTSTVYMELSSLRSEDTAVYYCARDTGYSYGRYYYYGMDVWGQGTLVTVSS", "VL": "B1 VL with G28S, N30G, S31R, E55Q, T56S, T94I, L96I, G100Q", "notes": "IgG format"}, "B11": {"name": "MAdCAM Antibody Table 2 clone 72 (antibody, V domains shown)", "VH": "QVQLVQSGAEVKKPGASVKVSCKASGYTFTSYYMHWVRQAPGQGLEWMGVINPIGGTTTYAQKFQGRVTMTRDTSTSTVYMELSSLRSEDTAVYYCASGAPSYYYYGMDVWGQGTLVTVSS", "VL": "B1 VL with G28S, N30S, W32Y, A34N, D50G, A51T, N53Y, E55A, G100Q", "notes": "IgG format"}, "B12": {"name": "MAdCAM Antibody Table 2 clone 66 (antibody, V domains shown)", "VH": "QVQLVQSGAEVKKPGASVKVSCKASGYTFTGHYMHWVRQAPGQGLEWMGIINPSGGSTSYAQKFQGRVTMTRDTSTSTVYMELSSLRSEDTAVYYCARDGAWFGEEYYYGMDVWGQGTTVTVSS", "VL": "DIQMTQSPSSLSASVGDRVTITCRASQGISNWLAWYQQKPGKAPKLLIYDASNLETGVPSRFSGSGSGTDFTLTISSLQPEDFATYYCQQYYSFPLYTFGQGTKVEIK", "notes": "IgG format"}, "B13": {"name": "MAdCAM Antibody Table 2 clone 69 (antibody, V domains shown)", "VH": "QVQLVQSGAEVKKPGASVKVSCKASGYTFTSYYMHWVRQAPGQGLEWMGIIDPSGGSTSYAQKFQGRVTMTRDTSTSTVYMELSSLRSEDTAVYYCAREEWSSGGVGYFDYWGQGTLVTVSS", "VL": "DIQMTQSPSSLSASVGDRVTITCRASQGISSYLAWYQQKPGKAPKLLIYATSSLQTGVPSRFSGSGSGTDFTLTISSLQPEDFATYYCQQTYSIPITFGQGTRLEIK", "notes": "IgG format"}, "B14": {"name": "MAdCAM Antibody Table 2 clone 70 (antibody, V domains shown)", "VH": "QVQLVQSGAEVKKPGASVKVSCKASGYPFTDYYMHWVRQAPGQGLEWMGWIKPNSGDTEYAQKFQGRVTMTRDTSTSTVYMELSSLRSEDTAVYYCARDRFVGKPDYYYYGMDVWGQGTMVTVSS", "VL": "B13 VL with G28S, S31V, Y32W, T51A, T56S, T91S, S93D, I94T, I96Y, R103K", "notes": "IgG format"}, "B15": {"name": "MAdCAM Antibody Table 2 clone 71 (antibody, V domains shown)", "VH": "QVQLVQSGAEVKKPGASVKVSCKASGYTFTSYYMHWVRQAPGQGLEWMGIINPSGGSTSYAQKFQGRVTMTRDTSTSTVYMELSSLRSEDTAVYYCARDSVAGTGGRYYGMDVWGQGTLVTVSS", "VL": "B13 VL with S31N, L33F, T51A, T56G, T91S, I94L, I96Y, R103K", "notes": "IgG format"}, "B16": {"name": "MAdCAM Antibody Table 2 clone 57 (antibody, V domains shown)", "VH": "EVQLLESGGGLVQPGGSLRLSCAASGFSVSSNYMSWVRQAPGKGLEWVAGISYDGSSKPYADSVKGRFTISRDNSKNTLYLQMNSLRAEDTAVYYCARSRGIAARPLQHWGQGTLVTVSS", "VL": "not shown", "notes": "IgG format"}, "B17": {"name": "MAdCAM Antibody Table 2 clone 68 (antibody, V domains shown)", "VH": "EVQLLESGGGLVQPGGSLRLSCAASGFTFGDYAMSWVRQAPGKGLEWVAVVSYDGTNKYYADSVKGRFTISRDNSKNTLYLQMNSLRAEDTAVYYCAKDICSSTSCYFDLWGRGTLVTVSS", "VL": "DIQMTQSPSSLSASVGDRVTITCRASQNINNYVNWYQQKPGKAPKLLIYDASNLETGVPSRFSGSGSGTDFTLTISSLQPEDFATYYCQQANSFPPTFGQGTRLEIK", "notes": "IgG format"}, "B18": {"name": "MAdCAM Antibody Table 2 clone 44 (antibody, V domains shown)", "VH": "not shown", "VL": "DIQMTQSPSSLSASVGDRVTITCQASQDISNYLNWYQQKPGKAPKLLIYAASSLQSGVPSRFSGSGSGTDFTLTISSLQPEDFATYYCQQTYSGWTFGPGTKVDIK", "notes": "IgG format"}, "B19": {"name": "MAdCAM Antibody Table 2 clone 54 (antibody, V domains shown)", "VH": "QVQLVQSGAEVKKPGSSVKVSCKASGGTLSRYGVSWVRQAPGQGLEWMGGIIPIFGTTNYAQKFQGRVTITADESTSTAYMELSSLRSEDTAVYYCARDRVYYDSSGYPTWYFDLWGRGTLVTVSS", "VL": "EIVMTQSPATLSVSPGERATLSCRASQSVSSSYLAWYQQKPGQAPRLLIYGASTRATGIPARFSGSGSGTEFTLTISSLQSEDFAVYYCQQYGSSPITFGQGTKVEIK", "notes": "IgG format"}, "B20": {"name": "MAdCAM Antibody Table 2 clone 62 (antibody, V domains shown)", "VH": "QVQLVQSGAEVKKPGASVKVSCKASGYTFTSYDINWVRQAPGQGLEWMGWINPNSGTTGYAQKFQGRVTMTRDTSTSTVYMELSSLRSEDTAVYYCARSPYYYYGMDVWGQGTTVTVSS", "VL": "DIQMTQSPSSLSASVGDRVTITCRASHFISRWVAWYQQKPGKAPKLLIYAASTLQSGVPSRFSGSGSGTDFTLTISSLQPEDFATYYCQQSYSGISFGPGTKVDIK", "notes": "IgG format"}}, "note": "Residue numbers refer to the chain shown, from its start."}
{"target": "T1, human MAdCAM expressed on cells (human, UniProt Q13477 19-382)", "T1 construct": "whole, on cells", "T1 sequence (looked up)": "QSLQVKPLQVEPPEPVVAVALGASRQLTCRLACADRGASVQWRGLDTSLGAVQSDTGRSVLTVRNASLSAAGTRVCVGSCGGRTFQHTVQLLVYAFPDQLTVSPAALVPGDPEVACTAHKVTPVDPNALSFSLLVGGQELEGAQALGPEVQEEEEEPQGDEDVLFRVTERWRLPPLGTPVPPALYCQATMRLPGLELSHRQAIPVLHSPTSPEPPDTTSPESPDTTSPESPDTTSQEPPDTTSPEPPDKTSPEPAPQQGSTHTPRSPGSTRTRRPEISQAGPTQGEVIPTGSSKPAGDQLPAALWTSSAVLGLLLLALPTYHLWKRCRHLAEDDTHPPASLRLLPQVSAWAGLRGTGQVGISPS", "experiment": "cell binding"}
{"binder": "B1", "binding result": "binds"}
{"binder": "B2", "binding result": "binds"}
{"binder": "B3", "binding result": "binds"}
{"binder": "B4", "binding result": "binds"}
{"binder": "B5", "binding result": "binds"}
{"binder": "B6", "binding result": "binds"}
{"binder": "B7", "binding result": "binds"}
{"binder": "B8", "binding result": "binds"}
{"binder": "B9", "binding result": "binds"}
{"binder": "B10", "binding result": "binds"}
{"binder": "B11", "binding result": "binds"}
{"binder": "B12", "binding result": "binds"}
{"binder": "B13", "binding result": "binds"}
{"binder": "B14", "binding result": "binds"}
{"binder": "B15", "binding result": "binds"}
{"binder": "B16", "binding result": "binds"}
{"binder": "B17", "binding result": "binds"}
{"binder": "B18", "binding result": "binds"}
{"binder": "B19", "binding result": "binds"}
{"binder": "B20", "binding result": "binds"}
{"target": "T2, mouse MAdCAM expressed on cells (mouse, UniProt Q61826 22-405)", "T2 construct": "whole, on cells", "T2 sequence (looked up)": "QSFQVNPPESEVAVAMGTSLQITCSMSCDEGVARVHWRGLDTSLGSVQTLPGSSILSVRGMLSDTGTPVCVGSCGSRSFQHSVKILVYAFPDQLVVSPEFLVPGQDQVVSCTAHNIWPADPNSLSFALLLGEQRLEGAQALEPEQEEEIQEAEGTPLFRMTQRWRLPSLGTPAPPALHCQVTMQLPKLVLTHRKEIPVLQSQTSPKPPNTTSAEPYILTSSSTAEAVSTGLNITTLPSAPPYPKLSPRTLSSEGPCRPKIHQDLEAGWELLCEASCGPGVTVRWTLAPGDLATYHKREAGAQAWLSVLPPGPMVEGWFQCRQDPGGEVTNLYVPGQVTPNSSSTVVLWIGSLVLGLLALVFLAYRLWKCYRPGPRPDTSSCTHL", "experiment": "cell binding"}
{"binder": "B1", "binding result": "no binding"}
{"binder": "B2", "binding result": "no binding"}
{"binder": "B3", "binding result": "no binding"}
{"binder": "B4", "binding result": "no binding"}
{"binder": "B5", "binding result": "no binding"}
{"binder": "B6", "binding result": "no binding"}
{"binder": "B7", "binding result": "no binding"}
{"binder": "B8", "binding result": "no binding"}
{"binder": "B9", "binding result": "no binding"}
{"binder": "B10", "binding result": "no binding"}
{"binder": "B11", "binding result": "no binding"}
{"binder": "B12", "binding result": "no binding"}
{"binder": "B13", "binding result": "no binding"}
{"binder": "B14", "binding result": "no binding"}
{"binder": "B15", "binding result": "no binding"}
{"binder": "B16", "binding result": "no binding"}
{"binder": "B17", "binding result": "no binding"}
{"binder": "B18", "binding result": "no binding"}
{"binder": "B19", "binding result": "no binding"}
{"binder": "B20", "binding result": "no binding"}
